Reference: the Human Domainome abundance scans (Beltran et al. 2025)
± gives the uncertainty stated by the source.

assay: abundance fitness (aPCA) (normalised: wild type 0, dead -1); higher = more abundant; growth selection in yeast, the domain comes from the species named; settings: Homo sapiens

In order of falling abundance fitness:
1. Lipoamide acyltransferase component of branched-chain alpha-keto acid dehydrogenase complex, mitochondrial Y208K, P11182  0.051 ± 0.06
2. Lipoamide acyltransferase component of branched-chain alpha-keto acid dehydrogenase complex, mitochondrial V192T, P11182  0.046 ± 0.052
3. Lipoamide acyltransferase component of branched-chain alpha-keto acid dehydrogenase complex, mitochondrial Y208C, P11182  0.037 ± 0.092
4. Lipoamide acyltransferase component of branched-chain alpha-keto acid dehydrogenase complex, mitochondrial Y208A, P11182  0.018 ± 0.036
5. Lipoamide acyltransferase component of branched-chain alpha-keto acid dehydrogenase complex, mitochondrial Y208M, P11182  0.012 ± 0.052
6. Lipoamide acyltransferase component of branched-chain alpha-keto acid dehydrogenase complex, mitochondrial Y208V, P11182  -0.02 ± 0.039
7. Lipoamide acyltransferase component of branched-chain alpha-keto acid dehydrogenase complex, mitochondrial Y208E, P11182  -0.032 ± 0.041
8. Lipoamide acyltransferase component of branched-chain alpha-keto acid dehydrogenase complex, mitochondrial Y208L, P11182  -0.032 ± 0.047
9. Lipoamide acyltransferase component of branched-chain alpha-keto acid dehydrogenase complex, mitochondrial V192S, P11182  -0.041 ± 0.053
10. Lipoamide acyltransferase component of branched-chain alpha-keto acid dehydrogenase complex, mitochondrial Y208F, P11182  -0.061 ± 0.084
11. Lipoamide acyltransferase component of branched-chain alpha-keto acid dehydrogenase complex, mitochondrial Y208I, P11182  -0.072 ± 0.063
12. Lipoamide acyltransferase component of branched-chain alpha-keto acid dehydrogenase complex, mitochondrial Y208T, P11182  -0.073 ± 0.074
13. Lipoamide acyltransferase component of branched-chain alpha-keto acid dehydrogenase complex, mitochondrial Y208H, P11182  -0.075 ± 0.097
14. Lipoamide acyltransferase component of branched-chain alpha-keto acid dehydrogenase complex, mitochondrial Y208S, P11182  -0.095 ± 0.041
15. Lipoamide acyltransferase component of branched-chain alpha-keto acid dehydrogenase complex, mitochondrial V192Y, P11182  -0.141 ± 0.079
16. Lipoamide acyltransferase component of branched-chain alpha-keto acid dehydrogenase complex, mitochondrial Y208N, P11182  -0.162 ± 0.061
17. Lipoamide acyltransferase component of branched-chain alpha-keto acid dehydrogenase complex, mitochondrial Y208G, P11182  -0.172 ± 0.036
18. Lipoamide acyltransferase component of branched-chain alpha-keto acid dehydrogenase complex, mitochondrial Y208D, P11182  -0.213 ± 0.06
19. Lipoamide acyltransferase component of branched-chain alpha-keto acid dehydrogenase complex, mitochondrial Y208P, P11182  -0.283 ± 0.044
